Experimental data from article PMC6540952.

System: Nc1ncnc2c1ncn2[C@@H]1O[C@H](COP(=O)(O)OP(=O)(O)OP(=O)(O)O)[C@@H](O)[C@H]1O
Test: purified protein
Assay type: biochemical, Homo sapiens

With IP6K1 (Homo sapiens) the Km was 353 ± 167 µM.
